Measured values taken from the supplement of paper PMC5998384.

What was measured:
[1] = tested on: HeLa Kyoto; test: melting temperature (median over replicates), in situ; higher = more thermally stable
[2] = tested on: HeLa Kyoto; test: solubility in G1/S (NP-40 vs SDS abundance) (log2 ratio); higher = more soluble; settings: cell cycle stage: G1/S
[3] = tested on: HeLa Kyoto; test: solubility change mitosis vs G1/S (difference of NP-40 vs SDS log2 ratios) (log2 ratio difference); higher = more soluble in mitosis
[4] = tested on: HeLa Kyoto; test: thermal stability score vs G1/S (z-score of summed log2 fold changes over temperatures); higher = more thermally stable than in G1/S
[5] = cell cycle stage: early G1 (4.5 h after nocodazole release)
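For melting temperature (median over replicates), in situ in this document: HeLa Kyoto cells synchronized by double thymidine or nocodazole block, proteins quantified by TMT10plex mass spectrometry, three independent biological replicates.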
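For solubility change mitosis vs G1/S (difference of NP-40 vs SDS log2 ratios) in this document: synchronized HeLa Kyoto cells (double thymidine block for G1/S, nocodazole release for mitosis), protein amounts in NP-40 versus SDS lysates quantified by mass spectrometry, three biological replicates.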
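For solubility in G1/S (NP-40 vs SDS abundance) in this document: HeLa Kyoto cells arrested at G1/S by double thymidine block, proteins quantified by TMT10plex mass spectrometry in mild NP-40 versus SDS extracts, three biological replicates.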
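For thermal stability score vs G1/S (z-score of summed log2 fold changes over temperatures) in this document: synchronized HeLa Kyoto cells, proteins quantified by TMT10plex mass spectrometry, three biological replicates, mitosis taken 0.5 h after nocodazole release, G1/S directly after double thymidine block.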

Sequence	melting temperature ([1]; cell cycle stage: G1/S) [°C]	melting temperature ([1]; cell cycle stage: mitosis) [°C]	solubility in G1/S (log2) [2]	solubility change mitosis (log2) [3]	thermal stability score [4, 5]	thermal stability score ([4]; cell cycle stage: mitosis)
MAASAKRKQEEKHLKMLRDMTGLPHNRKCFDCDQRGPTYVNMTVGSFVCTSCSGSLRGLNPPHRVKSISMTTFTQQEIEFLQKHGNEVCKQIWLGLFDDRSSAIPDFRDPQKVKEFLQEKYEKKRWYVPPEQAKVVASVHASISGSSASSTSSTPEVKPLKSLLGDSAPTLHLNKGTPSQSPVVGRSQGQQQEKKQFDLLSDLGSDIFAAPAPQSTATANFANFAHFNSHAAQNSANADFANFDAFGQSSGSSNFGGFPTASHSPFQPQTTGGSAASVNANFAHFDNFPKSSSADFGTFNTSQSHQTASAVSKVSTNKAGLQTADKYAALANLDNIFSAGQGGDQGSGFGTTGKAPVGSVVSVPSQSSASSDKYAALAELDSVFSSAATSSNAYTSTSNASSNVFGTVPVVASAQTQPASSSVPAPFGATPSTNPFVAAAGPSVASSTNPFQTNARGATAATFGTASMSMPTGFGTPAPYSLPTSFSGSFQQPAFPAQAAFPQQTAFSQQPNGAGFAAFGQTKPVVTPFGQVAAAGVSSNPFMTGAPTGQFPTGSSSTNPFL [AGFG1]	50.9	52.1	0.0305	-0.0484	0.14	-0.191
MAASCLVLLALCLLLPLLLLGGWKRWRRGRAARHVVAVVLGDVGRSPRMQYHALSLAMHGFSVTLLGFCNSKPHDELLQNNRIQIVGLTELQSLAVGPRVFQYGVKVVLQAMYLLWKLMWREPGAYIFLQNPPGLPSIAVCWFVGCLCGSKLVIDWHNYGYSIMGLVHGPNHPLVLLAKWYEKFFGRLSHLNLCVTNAMREDLADNWHIRAVTVYDKPASFFKETPLDLQHRLFMKLGSMHSPFRARSEPEDPVTERSAFTERDAGSGLVTRLRERPALLVSSTSWTEDEDFSILLAALEKFEQLTLDGHNLPSLVCVITGKGPLREYYSRLIHQKHFQHIQVCTPWLEAEDYPLLLGSADLGVCLHTSSSGLDLPMKVVDMFGCCLPVCAVNFKCLHELVKHEENGLVFEDSEELAAQLQMLFSNFPDPAGKLNQFRKNLRESQQLRWDESWVQTVLPLVMDT [ALG1]	52.4	52.6	-0.369	-0.125	0.156	-0.276
MAASGESGTSGGGGSTEEAFMTFYSEVKQIEKRDSVLTSKNQIERLTRPGSSYFNLNPFEVLQIDPEVTDEEIKKRFRQLSILVHPDKNQDDADRAQKAFEAVDKAYKLLLDQEQKKRALDVIQAGKEYVEHTVKERKKQLKKEGKPTIVEEDDPELFKQAVYKQTMKLFAELEIKRKEREAKEMHERKRQREEEIEAQEKAKREREWQKNFEESRDGRVDSWRNFQANTKGKKEKKNRTFLRPPKVKMEQRE [DNAJC8]	50.1	51.5	0.748	0.145	1.39	0.712
MAASLRLLGAASGLRYWSRRLRPAAGSFAAVCSRSVASKTPVGFIGLGNMGNPMAKNLMKHGYPLIIYDVFPDACKEFQDAGEQVVSSPADVAEKADRIITMLPTSINAIEAYSGANGILKKVKKGSLLIDSSTIDPAVSKELAKEVEKMGAVFMDAPVSGGVGAARSGNLTFMVGGVEDEFAAAQELLGCMGSNVVYCGAVGTGQAAKICNNMLLAISMIGTAEAMNLGIRLGLDPKLLAKILNMSSGRCWSSDTYNPVPGVMDGVPSANNYQGGFGTTLMAKDLGLAQDSATSTKSPILLGSLAHQIYRMMCAKGYSKKDFSSVFQFLREEETF [HIBADH]	55.4	56.9	0.469	-0.0734	0.844	-0.199
MAASPGPAGVGGAGAVYGSGSSGFALDSGLEIKTRSVEQTLLPLVSQITTLINHKDNTKKSDKTLQAIQRVGQAVNLAVGRFVKVGEAIANENWDLKEEINIACIEAKQAGETIAALTDITNLNHLESDGQITIFTDKTGVIKAARLLLSSVTKVLLLADRVVIKQIITSRNKVLATMERLEKVNSFQEFVQIFSQFGNEMVEFAHLSGDRQNDLKDEKKKAKMAAARAVLEKCTMMLLTASKTCLRHPNCESAHKNKEGVFDRMKVALDKVIEIVTDCKPNGETDISSISIFTGIKEFKMNIEALRENLYFQSKENLSVTLEVILERMEDFTDSAYTSHEHRERILELSTQARMELQQLISVWIQAQSKKTKSIAEELELSILKISHSLNELKKELHSTATQLAADLLKYHADHVVLKALKLTGVEGNLEALAEYACKLSEQKEQLVETCRLLRHISGTEPLEITCIHAEETFQVTGQQIISAAETLTLHPSSKIAKENLDVFCEAWESQISDMSTLLREINDVFEGRRGEKYGYLSLPKPMKNNANLKSLKPDKPDSEEQAKIAKLGLKLGLLTSDADCEIEKWEDQENEIVQYGRNMSSMAYSLYLFTRGEGPLKTSQDLIHQLEVFAAEGLKLTSSVQAFSKQLKDDDKLMLLLEINKLIPLCHQLQTVTKTSLQNKVFLKVDKCITKTRSMMALLVQLLSLCYKLLKKLQMENNGWVSVTNKDTMDSKT [CTNNAL1]	47.7	48.9	0.208	-0.111	0.258	1.63
MAASSISSPWGKHVFKAILMVLVALILLHSALAQSRRDFAPPGQQKREAPVDVLTQIGRSVRGTLDAWIGPETMHLVSESSSQVLWAISSAISVAFFALSGIAAQLLNALGLAGDYLAQGLKLSPGQVQTFLLWGAGALVVYWLLSLLLGLVLALLGRILWGLKLVIFLAGFVALMRSVPDPSTRALLLLALLILYALLSRLTGSRASGAQLEAKVRGLERQVEELRWRQRRAAKGARSVEEE [TMEM109]	54.6	53.8	-0.0444	-0.14	-3.9	-4.03
MAASTGYVRLWGAARCWVLRRPMLAAAGGRVPTAAGAWLLRGQRTCDASPPWALWGRGPAIGGQWRGFWEASSRGGGAFSGGEDASEGGAEEGAGGAGGSAGAGEGPVITALTPMTIPDVFPHLPLIAITRNPVFPRFIKIIEVKNKKLVELLRRKVRLAQPYVGVFLKRDDSNESDVVESLDEIYHTGTFAQIHEMQDLGDKLRMIVMGHRRVHISRQLEVEPEEPEAENKHKPRRKSKRGKKEAEDELSARHPAELAMEPTPELPAEVLMVEVENVVHEDFQVTEEVKALTAEIVKTIRDIIALNPLYRESVLQMMQAGQRVVDNPIYLSDMGAALTGAESHELQDVLEETNIPKRLYKALSLLKKEFELSKLQQRLGREVEEKIKQTHRKYLLQEQLKIIKKELGLEKDDKDAIEEKFRERLKELVVPKHVMDVVDEELSKLGLLDNHSSEFNVTRNYLDWLTSIPWGKYSNENLDLARAQAVLEEDHYGMEDVKKRILEFIAVSQLRGSTQGKILCFYGPPGVGKTSIARSIARALNREYFRFSVGGMTDVAEIKGHRRTYVGAMPGKIIQCLKKTKTENPLILIDEVDKIGRGYQGDPSSALLELLDPEQNANFLDHYLDVPVDLSKVLFICTANVTDTIPEPLRDRMEMINVSGYVAQEKLAIAERYLVPQARALCGLDESKAKLSSDVLTLLIKQYCRESGVRNLQKQVEKVLRKSAYKIVSGEAESVEVTPENLQDFVGKPVFTVERMYDVTPPGVVMGLAWTAMGGSTLFVETSLRRPQDKDAKGDKDGSLEVTGQLGEVMKESARIAYTFARAFLMQHAPANDYLVTSHIHLHVPEGATPKDGPSAGCTIVTALLSLAMGRPVRQNLAMTGEVSLTGKILPVGGIKEKTIAAKRAGVTCIVLPAENKKDFYDLAAFITEGLEVHFVEHYREIFDIAFPDEQAEALAVER [LONP1]	54.4	53.6	0.12	-0.0806	-0.58	-1.35
MAASWRLGCDPRLLRYLVGFPGRRSVGLVKGALGWSVSRGANWRWFHSTQWLRGDPIKILMPSLSPTMEEGNIVKWLKKEGEAVSAGDALCEIETDKAVVTLDASDDGILAKIVVEEGSKNIRLGSLIGLIVEEGEDWKHVEIPKDVGPPPPVSKPSEPRPSPEPQISIPVKKEHIPGTLRFRLSPAARNILEKHSLDASQGTATGPRGIFTKEDALKLVQLKQTGKITESRPTPAPTATPTAPSPLQATAGPSYPRPVIPPVSTPGQPNAVGTFTEIPASNIRRVIAKRLTESKSTVPHAYATADCDLGAVLKVRQDLVKDDIKVSVNDFIIKAAAVTLKQMPDVNVSWDGEGPKQLPFIDISVAVATDKGLLTPIIKDAAAKGIQEIADSVKALSKKARDGKLLPEEYQGGSFSISNLGMFGIDEFTAVINPPQACILAVGRFRPVLKLTEDEEGNAKLQQRQLITVTMSSDSRVVDDELATRFLKSFKANLENPIRLA [PDHX]	53.5	52.9	0.248	-0.00638	-1.5	-1.54
MAATELRGVVGPGPAAIAALGGGGAGPPVVGGGGGRGDAGPGSGAASGTVVAAAAGGPGPGAGGVAAAGPAPAPPTGGSGGSGAGGSGSAREGWLFKWTNYIKGYQRRWFVLSNGLLSYYRSKAEMRHTCRGTINLATANITVEDSCNFIISNGGAQTYHLKASSEVERQRWVTALELAKAKAVKMLAESDESGDEESVSQTDKTELQNTLRTLSSKVEDLSTCNDLIAKHGTALQRSLSELESLKLPAESNEKIKQVNERATLFRITSNAMINACRDFLMLAQTHSKKWQKSLQYERDQRIRLEETLEQLAKQHNHLERAFRGATVLPANTPGNVGSGKDQCCSGKGDMSDEDDENEFFDAPEIITMPENLGHKRTGSNISGASSDISLDEQYKHQLEETKKEKRTRIPYKPNYSLNLWSIMKNCIGKELSKIPMPVNFNEPLSMLQRLTEDLEYHELLDRAAKCENSLEQLCYVAAFTVSSYSTTVFRTSKPFNPLLGETFELDRLEENGYRSLCEQVSHHPPAAAHHAESKNGWTLRQEIKITSKFRGKYLSIMPLGTIHCIFHATGHHYTWKKVTTTVHNIIVGKLWIDQSGEIDIVNHKTGDKCNLKFVPYSYFSRDVARKVTGEVTDPSGKVHFALLGTWDEKMECFKVQPVIGENGGDARQRGHEAEESRVMLWKRNPLPKNAENMYYFSELALTLNAWESGTAPTDSRLRPDQRLMENGRWDEANAEKQRLEEKQRLSRKKREAEAMKATEDGTPYDPYKALWFERKKDPVTKELTHIYRGEYWECKEKQDWSSCPDIF [OSBP]	52.1	51.9	-0.0183	-0.212	-1.23	-0.683
MAATLGPLGSWQQWRRCLSARDGSRMLLLLLLLGSGQGPQQVGAGQTFEYLKREHSLSKPYQGVGTGSSSLWNLMGNAMVMTQYIRLTPDMQSKQGALWNRVPCFLRDWELQVHFKIHGQGKKNLHGDGLAIWYTKDRMQPGPVFGNMDKFVGLGVFVDTYPNEEKQQERVFPYISAMVNNGSLSYDHERDGRPTELGGCTAIVRNLHYDTFLVIRYVKRHLTIMMDIDGKHEWRDCIEVPGVRLPRGYYFGTSSITGDLSDNHDVISLKLFELTVERTPEEEKLHRDVFLPSVDNMKLPEMTAPLPPLSGLALFLIVFFSLVFSVFAIVIGIILYNKWQEQSRKRFY [LMAN2L]	53.7	54.1	-0.0714	-0.146	-0.409	-1.27
